The subject of this data set is MS2 coat protein. Kind of data set: apparent KD of MS2 coat protein; designed switch direction (-1 OFF switch, 1 ON switch): -1; higher = weaker reporter binding. In a few lines:
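Transcription of designed RNA switches on Illumina chips was done by stalled E. coli RNA polymerase. SNAP-549-labelled MS2 coat protein was then titrated in doubling steps from 0.7 or 1.5 nM to 3 µM, with steps of 0.8–1.5 h at the lowest and 10–20 min at the highest concentration. The per-design median over clusters of curve-fitted normalised fluorescence is reported as apparent KD.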

[1] abbreviates: Eterna round: R95, input ligand: FMN 200 uM.
The mark [2] stands for this setting: Eterna round: R95, input ligand: microRNA oligo, concentration not stated.
[3] abbreviates: Eterna round: R95, input ligand: none.
Where [4] appears, read: input ligand: microRNA oligo, concentration not stated.

Turning to “AGGAAGCAAGGAUAUACGAGGAGAAGGUGUCCAUCUAAAGGACAUGAGGAUCACCCAUGUAGAAGGUGCGAGAA [JR_Exclu2_Sub049] (puzzle: Exclusion 2)”, the “apparent KD of MS2 coat protein” value was found to be 49.6 nM under setting [1], 210 nM under setting [2] and 189 nM under setting [3].

Consider “AGGCACUAAGGAUAUACAAAGGUGCUGCGUAUGCUAGCCAGACAUGAGGAUCACCCAUGUAGAAGGUAGGAAUA [EX2 B.14] (Eterna round: R97, puzzle: Exclusion 2)”, for which the “apparent KD of MS2 coat protein” value by setting is: (input ligand: FMN 200 uM) 16.4 nM; (input ligand: none) 16.8 nM.

In the case of “AGGCCUCGAGGAUAUACAUGAGGAUCACCCAUGUCAUAAUAGAUUGUUAUGAGACAUCGUAGAAGGCGAUGGCC [Eternabot (L2) Solution 98] (Eterna round: R97, puzzle: Exclusion 3)”, the “apparent KD of MS2 coat protein” value (input ligand: FMN 200 uM) is 78.1 nM and the “apparent KD of MS2 coat protein” value (input ligand: none) was determined as 30 nM.

For the sequence “AGGUAGUCAGGAUAUUAGGAGUAGCGGGAUAACGCUACGAGUGAGAAGGGACAUGAGGAUCACCCAUGUUUAUU [JR_Ex4_Sub069] (Eterna round: R97, puzzle: Exclusion 4)”, the “apparent KD of MS2 coat protein” value by setting is: (input ligand: FMN 200 uM) 70.3 nM; (input ligand: none) 26.8 nM.

“AGGUCAGAAGGAUAUACAUGAGGAUCACCCAUGUGGGAUACAACGAGCCGUUGUUCAGGUAGAAGGUCUAAAAU [Eternabot (Original) Solution 33] (Eterna round: R97, puzzle: Exclusion 3)”: the “apparent KD of MS2 coat protein” value (input ligand: FMN 200 uM) was 86 nM and the “apparent KD of MS2 coat protein” value (input ligand: none) was determined as 77.3 nM.

On to “AGGUGCUUCAGGAGACAUGAGGAUCACCCAUGUUGAGUUAGCGAGGAUAUCGGUAACCAUUGUGAUGAGAAGGCGCAAACCAGA [Ex NG3 #44] (Eterna round: R96, puzzle: Exclusion NG 3)”, for which the “apparent KD of MS2 coat protein” value (input ligand: FMN 200 uM) came to 60.5 nM, the “apparent KD of MS2 coat protein” value under setting [4] stood at 15.6 nM and the “apparent KD of MS2 coat protein” value (input ligand: none) stood at 47.3 nM.

On to “AGGUGCUUCUGGAAACAUGAGGAUCACCCAUGUUGAGUUAGCGAGGAUAUCGGUAACAAUUGUUAUGAGAAGGCGCAAACCAGA [Ex NG3 #36] (Eterna round: R96, puzzle: Exclusion NG 3)”, for which the “apparent KD of MS2 coat protein” value is 17 nM (input ligand: FMN 200 uM), 12.5 nM under setting [4] and 20.7 nM (input ligand: none).

“AGUAACCGUCACGAAAGUGAUGGUUACACAAGCAAAUGUACAUGAGGAUCACCCAUGUCCUCAUUUGCUCGUCUUAU [Sensor 3 - 45] (puzzle: Sensor v3, turn-off variant 2)”: the “apparent KD of MS2 coat protein” value by setting is: under setting [1], 17.2 nM; under setting [2], 379 nM; under setting [3], 18.3 nM.

In the case of “AGUAACCGUCACGAAAGUGAUGGUUACACAAGUGUAAUAACAUGAGGAUCACCCAUGUCCUCAUUUGCUCGUUUUAU [Sensor 3 - 37] (puzzle: Sensor v3, turn-off variant 2)”, the “apparent KD of MS2 coat protein” value runs as follows: under setting [1], 45.1 nM; under setting [2], 144 nM; under setting [3], 140 nM.

For “AGUAACUAUCACGAAAGUGAUAGUUACACAAGCAGUGACACAUGAGGAUCACCCAUGUCCUCAUUUGCUCGUCUUAU [Sensor 3 - 29] (puzzle: Sensor v3, turn-off variant 2)”, the “apparent KD of MS2 coat protein” value amounted to 614 nM under setting [1], 637 nM under setting [2] and 478 nM under setting [3].

“AGUACAUGAGGAUCACCCAUGUCAGUUAUCAAUGGCACGCCUAAGGAUAUUGAGCGUCAAAGGCUCAAGAAGGUAGCUUUAUGC [Eternabot solution 12] (Eterna round: R96, puzzle: Exclusion NG 3)”: the “apparent KD of MS2 coat protein” value runs as follows: (input ligand: FMN 200 uM) 13.7 nM; under setting [4], 16.7 nM; (input ligand: none) 25.6 nM.

For the sequence “AGUACUAACACGAAAGUGUUAGUACAAUAAGCUUGUAAAACAUGAGGAUCACCCAUGUCCUCAUAAGCUCGUCUUAU [Mat - Sensor v3 - Turn-off var 2 - D47] (puzzle: Sensor v3, turn-off variant 2)”, the “apparent KD of MS2 coat protein” value is 250 nM under setting [1], 11.5 nM under setting [2] and 446 nM under setting [3].
